Assay results reported in PMC12038395, “Mechanistic insights into the activity of SARS-CoV-2 RNA polymerase inhibitors using single-molecule FRET”.

Biological target: SARS-CoV-2 nsp12 (RdRp), wild type;SARS-CoV-2 nsp7;SARS-CoV-2 nsp8 (SARS-CoV-2;SARS-CoV-2;SARS-CoV-2, UniProt P0DTD1;P0DTD1;P0DTD1 4393-5324;3860-3942;3943-4140, ||)
Assay: EMSA (native gel); no NTP
Details: protein: recombinant;recombinant;recombinant; tags: C-terminal His10 (TEV-cleaved protein A);GST-3C construct (E. coli); 9.4 kDa on gel;GST-3C construct (E. coli); 22 kDa on gel; copies: 1;1;2; label: Cy3 at template 5' end; Cy5 internal at primer position 12

B1: Extension Template P1 / Extension Primer P12 short (overhang RNA) (structured_RNA)
RNA 1: AAAAAAAAUUUUUUUUUUUUUUUAAUUCUUAAUCUCACAUAGC
RNA 2: GCUAUGUGAGAUUAAGAAUU
B1: binds.
